Ends that are not written are not given here. * marks the point of attachment. Biotin = O=C1N[C@H]2[C@H](CS[C@H]2CCCCC(=O)*)N1
What was measured:
[1] = molecular target: GST-MPP1 PDZ domain fusion protein (55 Kd erythrocyte membrane protein AA101-186; PDZ domain 1 of 1) (UniProt P08515 1-218 = GST); test: A/G assays
[2] = molecular target: T1, GST-TAX40 PDZ domain fusion protein (human tax interaction protein 40 AA35-137; PDZ domain 1 of 1) (human, UniProt P08515 1-218 = GST); test: A/G assays
T1 construct: also called TX 40
T1 sequence (P08515 1-218, tags or fused parts left off): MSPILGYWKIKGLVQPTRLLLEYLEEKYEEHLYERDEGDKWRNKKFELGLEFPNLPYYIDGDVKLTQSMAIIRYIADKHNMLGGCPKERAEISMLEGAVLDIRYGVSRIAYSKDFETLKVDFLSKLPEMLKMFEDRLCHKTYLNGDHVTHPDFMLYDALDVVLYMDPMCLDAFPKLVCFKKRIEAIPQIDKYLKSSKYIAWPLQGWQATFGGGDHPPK

[3] = molecular target: GST-MINT3 PDZ domain fusion protein (human MINT3 AA11-52; PDZ domain 1 of 1) (human, UniProt P08515 1-218 = GST); test: A/G assays
Chain of GST-MINT3 PDZ domain fusion protein (human MINT3 AA11-52; PDZ domain 1 of 1) (P08515 1-218, tags or fused parts left off): as above

[4] = molecular target: T2, GST-KIAA0316 PDZ domain fusion protein (KIAA0316 AA197-284; PDZ domain 1 of 1) (UniProt P08515 1-218 = GST); test: A/G assays
T2 construct: also called K316

[5] = molecular target: T3, GST-MPP2 PDZ domain fusion protein (maguk p55 subfamily member 2 (DLG2) AA185-273; PDZ domain 1 of 1) (UniProt P08515 1-218 = GST); test: A/G assays
T3 construct: also called MMP2
T3 sequence (P08515 1-218, tags or fused parts left off): as above

[6] = molecular target: GST-LIMK2 PDZ domain fusion protein (human LIM domain kinase 2 AA185-275; PDZ domain 1 of 1) (human, UniProt P08515 1-218 = GST); test: A/G assays
Chain of GST-LIMK2 PDZ domain fusion protein (human LIM domain kinase 2 AA185-275; PDZ domain 1 of 1) (P08515 1-218, tags or fused parts left off): as above

[7] = molecular target: T4, GST-RGS12 PDZ domain fusion protein (human regulator of G-protein signalling 12 AA35-103; PDZ domain 1 of 1) (human, UniProt P08515 1-218 = GST); test: A/G assays
T4 construct: also called RSG12
T4 sequence (P08515 1-218, tags or fused parts left off): as above

[8] = molecular target: GST-LIM PDZ domain fusion protein (Human LIM protein AA29-112; PDZ domain 1 of 1) (human, UniProt P08515 1-218 = GST); test: A/G assays
Chain of GST-LIM PDZ domain fusion protein (Human LIM protein AA29-112; PDZ domain 1 of 1) (P08515 1-218, tags or fused parts left off): as above

[9] = molecular target: GST-PTN-4 PDZ domain fusion protein (protein-tyrosine phosphatase meg1 AA774-862; PDZ domain 1 of 1) (UniProt P08515 1-218 = GST); test: A/G assays
Chain of GST-PTN-4 PDZ domain fusion protein (protein-tyrosine phosphatase meg1 AA774-862; PDZ domain 1 of 1) (P08515 1-218, tags or fused parts left off): as above

[10] = molecular target: GST-AF6 PDZ domain fusion protein (af-6 protein AA985-1077; PDZ domain 1 of 1) (UniProt P08515 1-218 = GST); test: A/G assays
Chain of GST-AF6 PDZ domain fusion protein (af-6 protein AA985-1077; PDZ domain 1 of 1) (P08515 1-218, tags or fused parts left off): as above

[11] = molecular target: GST-TIAM1 PDZ domain fusion protein (T-lymphoma invasion and metastasis inducing protein 1 AA1001-1088); PDZ 1 … (UniProt P08515 1-218 = GST); test: A/G assays
Chain of GST-TIAM1 PDZ domain fusion protein (T-lymphoma invasion and metastasis inducing protein 1 AA1001-1088); PDZ 1 … (P08515 1-218, tags or fused parts left off): as above

[12] = molecular target: GST-DVL1 PDZ domain fusion protein (human dishevelled segment polarity protein homolog AA248-340); PDZ domain … (human, UniProt P08515 1-218 = GST); test: A/G assays
Chain of GST-DVL1 PDZ domain fusion protein (human dishevelled segment polarity protein homolog AA248-340); PDZ domain … (P08515 1-218, tags or fused parts left off): as above

[13] = molecular target: T5, GST-KIAA0559 PDZ domain fusion protein (KIAA0559 AA766-870; PDZ1 of 1) (UniProt P08515 1-218 = GST); test: A/G assays
T5 construct: also called K559
T5 sequence (P08515 1-218, tags or fused parts left off): as above

[14] = molecular target: T6, GST-TAX33 PDZ domain fusion protein (tax interaction protein 33 AA73-162; PDZ domain 1 of 1) (UniProt P08515 1-218 = GST); test: A/G assays
T6 construct: also called TX33

[15] = molecular target: T7, GST-SYN1a PDZ domain fusion protein (alpha1-syntrophin AA96-189; PDZ domain 1 of 1) (UniProt P08515 1-218 = GST); test: A/G assays
T7 construct: also called SYN 1 alpha; SYNTR 1 alpha
T7 sequence (P08515 1-218, tags or fused parts left off): as above

[16] = molecular target: T8, GST-TAX43 PDZ domain fusion protein (human tax interaction protein 43 AA15-85; PDZ domain 1 of 1) (human, UniProt P08515 1-218 = GST); test: A/G assays
T8 construct: also called TX 43
T8 sequence (P08515 1-218, tags or fused parts left off): as above

[17] = molecular target: GST-NOS1 PDZ domain fusion protein (human neuronal nitric oxide synthase; PDZ domain 1 of 1) (human, UniProt P08515 1-218 = GST); test: A/G assays
[18] = molecular target: T9, GST-CASK PDZ domain fusion protein (CASK AA495-584; PDZ domain 1 of 1) (mouse, UniProt P08515 1-218 = GST); test: A/G assays
T9 construct: also called mCASK
T9 sequence (P08515 1-218, tags or fused parts left off): as above

[19] = molecular target: T10, GST-TAX2 PDZ domain fusion protein (human tax interaction protein 2 AA54-140; PDZ domain 1 of 1) (human, UniProt P08515 1-218 = GST); test: A/G assays
T10 construct: also called TX 2
T10 sequence (P08515 1-218, tags or fused parts left off): as above

[20] = molecular target: T11, GST-KIAA0303 PDZ domain fusion protein (KIAA0303 AA652-742; PDZ domain 1 of 1) (UniProt P08515 1-218 = GST); test: A/G assays
T11 construct: also called K303
T11 sequence (P08515 1-218, tags or fused parts left off): as above

[21] = molecular target: GST-prIL16 PDZ domain fusion protein (putative interleukin 16 precursor AA170-383; PDZ domains 1-2 of 2) (UniProt P08515 1-218 = GST); test: A/G assays
Chain of GST-prIL16 PDZ domain fusion protein (putative interleukin 16 precursor AA170-383; PDZ domains 1-2 of 2) (P08515 1-218, tags or fused parts left off): as above

[22] = molecular target: T12, GST-CBP PDZ domain fusion protein (Cytohesin binding protein HE AA85-175; PDZ domain 1 of 1) (UniProt P08515 1-218 = GST); test: A/G assays
T12 construct: also called Prot
T12 sequence (P08515 1-218, tags or fused parts left off): as above

[23] = molecular target: T13, GST-41.8 kD PDZ domain fusion protein (hypothetical 41.8 kD protein AA4-85; PDZ domain 1 of 1) (UniProt P08515 1-218 = GST); test: A/G assays
T13 construct: also called hypoth

[24] = molecular target: T14, GST-NeDLG PDZ domain fusion protein (presynaptic protein sao102, neuroendocrine-dlg; PDZ domains 1-2 of 3) (UniProt P08515 1-218 = GST); test: G assay
T14 construct: also called NeDLG1
T14 sequence (P08515 1-218, tags or fused parts left off): as above

[25] = molecular target: T15, GST-PSD95 PDZ domain fusion protein (human post-synaptic density protein 95 AA387-724; PDZ domains 1-3 of 3) (human, UniProt P08515 1-218 = GST); test: A and G assays
T15 sequence (P08515 1-218, tags or fused parts left off): as above

[26] = molecular target: T15, GST-PSD95 PDZ domain fusion protein …; test: A/G assays
[27] = molecular target: T14, GST-NeDLG PDZ domain fusion protein …; test: A/G assays
[28] = molecular target: T13, GST-41.8 kD PDZ domain fusion protein …; test: A assay
[29] = molecular target: T13, GST-41.8 kD PDZ domain fusion protein …; test: A and G assays

Chain of GST-MPP1 PDZ domain fusion protein (55 Kd erythrocyte membrane protein AA101-186; PDZ domain 1 of 1) (P08515 1-218, tags or fused parts left off): as above

Biotin-KKGTYLTDETHREVKFTSL [CD46 (form 1) C-terminal PL peptide AA10L, biotinylated]: no binding [1]; no binding [2]; no binding [3]. Biotin-KKGTYLTDETHREVKFTSL [CD46 (form 1) C-terminal PL peptide AA10L, biotinylated]: no binding [4]; no binding [5]; no binding [6]. Biotin-KKGTYLTDETHREVKFTSL [CD46 (form 1) C-terminal PL peptide AA10L, biotinylated]: no binding [7]; no binding [8]; no binding [9]. Biotin-KKGTYLTDETHREVKFTSL [CD46 (form 1) C-terminal PL peptide AA10L, biotinylated]: no binding [10]; no binding [11]; no binding [12]. Biotin-KKGTYLTDETHREVKFTSL [CD46 (form 1) C-terminal PL peptide AA10L, biotinylated]: no binding [13]; no binding [14]; no binding [15]. Biotin-KKGTYLTDETHREVKFTSL [CD46 (form 1) C-terminal PL peptide AA10L, biotinylated]: no binding [16]; no binding [17]; no binding [18]. Biotin-KKGTYLTDETHREVKFTSL [CD46 (form 1) C-terminal PL peptide AA10L, biotinylated]: no binding [19]; no binding [20]; no binding [21]. Biotin-KKGTYLTDETHREVKFTSL [CD46 (form 1) C-terminal PL peptide AA10L, biotinylated]: no binding [22]; no binding [23]; binds [24]. Biotin-KKGTYLTDETHREVKFTSL [CD46 (form 1) C-terminal PL peptide AA10L, biotinylated]: binds [25].

Biotin-TSGTGHNQTRALRASESGI [CD97 (CD55L) C-terminal PL peptide AA14L, biotinylated]: no binding [1]; no binding [2]; no binding [3]. Biotin-TSGTGHNQTRALRASESGI [CD97 (CD55L) C-terminal PL peptide AA14L, biotinylated]: no binding [4]; no binding [5]; no binding [6]. Biotin-TSGTGHNQTRALRASESGI [CD97 (CD55L) C-terminal PL peptide AA14L, biotinylated]: no binding [7]; no binding [8]; no binding [9]. Biotin-TSGTGHNQTRALRASESGI [CD97 (CD55L) C-terminal PL peptide AA14L, biotinylated]: no binding [10]; no binding [11]; no binding [12]. Biotin-TSGTGHNQTRALRASESGI [CD97 (CD55L) C-terminal PL peptide AA14L, biotinylated]: no binding [13]; no binding [14]; no binding [15]. Biotin-TSGTGHNQTRALRASESGI [CD97 (CD55L) C-terminal PL peptide AA14L, biotinylated]: no binding [26]; no binding [16]; no binding [17]. Biotin-TSGTGHNQTRALRASESGI [CD97 (CD55L) C-terminal PL peptide AA14L, biotinylated]: no binding [18]; no binding [27]; no binding [19]. Biotin-TSGTGHNQTRALRASESGI [CD97 (CD55L) C-terminal PL peptide AA14L, biotinylated]: no binding [20]; no binding [21]; no binding [22]. Biotin-TSGTGHNQTRALRASESGI [CD97 (CD55L) C-terminal PL peptide AA14L, biotinylated]: binds [28].

Biotin-SPQPDSTDNDDYDDISAA [CD6 C-terminal PL peptide AA6L, biotinylated]: no binding [1]; no binding [2]; no binding [3]. Biotin-SPQPDSTDNDDYDDISAA [CD6 C-terminal PL peptide AA6L, biotinylated]: no binding [4]; no binding [5]; no binding [6]. Biotin-SPQPDSTDNDDYDDISAA [CD6 C-terminal PL peptide AA6L, biotinylated]: no binding [7]; no binding [8]; no binding [9]. Biotin-SPQPDSTDNDDYDDISAA [CD6 C-terminal PL peptide AA6L, biotinylated]: no binding [10]; no binding [11]; no binding [12]. Biotin-SPQPDSTDNDDYDDISAA [CD6 C-terminal PL peptide AA6L, biotinylated]: no binding [13]; no binding [14]; no binding [15]. Biotin-SPQPDSTDNDDYDDISAA [CD6 C-terminal PL peptide AA6L, biotinylated]: no binding [26]; no binding [16]; no binding [17]. Biotin-SPQPDSTDNDDYDDISAA [CD6 C-terminal PL peptide AA6L, biotinylated]: no binding [18]; no binding [27]; no binding [19]. Biotin-SPQPDSTDNDDYDDISAA [CD6 C-terminal PL peptide AA6L, biotinylated]: no binding [20]; no binding [21]; no binding [22]. Biotin-SPQPDSTDNDDYDDISAA [CD6 C-terminal PL peptide AA6L, biotinylated]: binds [28].

Biotin-PYGTAMEKAQLKPPATSDA [CD49E (alpha-4) C-terminal PL peptide AA11L, biotinylated]: no binding [1]; no binding [2]; no binding [3]. Biotin-PYGTAMEKAQLKPPATSDA [CD49E (alpha-4) C-terminal PL peptide AA11L, biotinylated]: no binding [4]; no binding [5]; no binding [6]. Biotin-PYGTAMEKAQLKPPATSDA [CD49E (alpha-4) C-terminal PL peptide AA11L, biotinylated]: no binding [7]; no binding [8]; no binding [9]. Biotin-PYGTAMEKAQLKPPATSDA [CD49E (alpha-4) C-terminal PL peptide AA11L, biotinylated]: no binding [10]; no binding [11]; no binding [12]. Biotin-PYGTAMEKAQLKPPATSDA [CD49E (alpha-4) C-terminal PL peptide AA11L, biotinylated]: no binding [13]; no binding [14]; no binding [15]. Biotin-PYGTAMEKAQLKPPATSDA [CD49E (alpha-4) C-terminal PL peptide AA11L, biotinylated]: no binding [26]; no binding [16]; no binding [17]. Biotin-PYGTAMEKAQLKPPATSDA [CD49E (alpha-4) C-terminal PL peptide AA11L, biotinylated]: no binding [18]; no binding [27]; no binding [19]. Biotin-PYGTAMEKAQLKPPATSDA [CD49E (alpha-4) C-terminal PL peptide AA11L, biotinylated]: no binding [20]; no binding [21]; no binding [22]. Biotin-PYGTAMEKAQLKPPATSDA [CD49E (alpha-4) C-terminal PL peptide AA11L, biotinylated]: binds [29].

Reference: US20090149339A1 (published 2009)
